Data reported in article PMC5877318.

Key:
Assay in all cases: X-ray crystallography
mZFP568 ZF2-11 = mZFP568 ZF2-11 (Mus musculus, UniProt E9PYI1 391-665)
mZFP568 ZF1-11 = mZFP568 ZF1-11 (Mus musculus, UniProt E9PYI1 363-665)
mZFP568 ZF1-10 = mZFP568 ZF1-10 (Mus musculus, UniProt E9PYI1 363-637)
Chain of mZFP568 ZF1-10 (E9PYI1 363-637): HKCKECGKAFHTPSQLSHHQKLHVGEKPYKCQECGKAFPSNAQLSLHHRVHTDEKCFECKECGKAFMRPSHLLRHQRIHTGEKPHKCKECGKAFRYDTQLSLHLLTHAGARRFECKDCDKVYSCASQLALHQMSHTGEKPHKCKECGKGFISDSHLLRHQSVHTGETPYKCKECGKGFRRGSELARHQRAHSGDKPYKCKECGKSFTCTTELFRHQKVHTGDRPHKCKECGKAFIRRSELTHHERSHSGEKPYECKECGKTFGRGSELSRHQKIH

Chain of mZFP568 ZF1-11 (E9PYI1 363-665): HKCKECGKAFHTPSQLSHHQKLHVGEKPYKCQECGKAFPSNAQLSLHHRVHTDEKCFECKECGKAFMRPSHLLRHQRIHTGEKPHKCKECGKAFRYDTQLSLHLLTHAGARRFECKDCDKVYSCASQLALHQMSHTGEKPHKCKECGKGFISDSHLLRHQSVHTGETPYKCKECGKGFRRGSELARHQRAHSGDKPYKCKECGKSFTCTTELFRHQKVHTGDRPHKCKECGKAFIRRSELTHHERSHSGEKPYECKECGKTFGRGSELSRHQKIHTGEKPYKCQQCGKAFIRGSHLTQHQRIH
Chain of mZFP568 ZF2-11 (E9PYI1 391-665): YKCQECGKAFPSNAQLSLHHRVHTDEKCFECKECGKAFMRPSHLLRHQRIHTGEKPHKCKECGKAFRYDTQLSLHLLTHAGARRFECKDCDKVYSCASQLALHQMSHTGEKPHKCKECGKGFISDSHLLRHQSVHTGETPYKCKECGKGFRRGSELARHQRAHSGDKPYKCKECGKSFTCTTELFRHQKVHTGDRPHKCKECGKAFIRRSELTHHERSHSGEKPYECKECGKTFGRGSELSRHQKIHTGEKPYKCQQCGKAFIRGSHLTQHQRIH

Row | Binder | binding result (mZFP568 ZF2-11) | binding result (mZFP568 ZF1-11) | binding result (mZFP568 ZF1-10)
1 | 28-bp mouse Igf2-P0 crystallization oligo (dsDNA) DNA 1: TGTGGGCGTGGCACAGGTAAAAAGGGCA DNA 2: TGCCCTTTTTACCTGTGCCACGCCCACA | binds | binds | 
2 | 26-bp mouse Igf2-P0 crystallization oligo (dsDNA) DNA 1: GTGGGCGTGGCACAGGTAAAAAGGGC DNA 2: GCCCTTTTTACCTGTGCCACGCCCAC |  |  | binds
